Assay results from patent US20230346948A1, “Lipid conjugated peptide inhibitors of PICK1” (University of Copenhagen, priority 2020, published 2023).

Tests used:
[1] = test system: diabetic neuropathy (STZ model); details: 5MPK, at +2 h
Protocol: Diabetic neuropathy (STZ) model. Diabetes is induced by a single IP injection of […]. Streptozocin solution (100 μl/10 g, Sigma-aldrich S0130, batch #WXBB7152V). Glycemia is tested before, and 7 days after injection.
The mechanical threshold response of the operated mice was measured with calibrated von Frey filaments (“up/down” method) and the 50% threshold (g) was calculated. The experimenter was blinded to mice treatment. […] Compounds were diluted in PBS (vehicle) and administered s.c. at 10 μL/g, in doses as indicated (gabapentine, 5MPK). Statistical analysis was performed using GraphPad Prism 6.0.

[2] = Plasma exposure of biotinylated peptide after s.c. injection, ELISA; type: in vivo, mice; details: male, C57bl6N, mouse, sc, s.c. 10 μmol/kg, read-out: time of peak plasma concentration (converted)
Protocol: Blood sample collection. Biotinylated TAT-di-PEG4-DATC5 (biot-TPD5; 34 mg/kg=[…]) or Biotinylated myr-di-PEG4-DATC5 (biot-mPD5; […]) diluted in 0.9% NaCl was injected s.c in 8 weeks old male C57bl6N mice (18 mice in total) once, and blood samples were collected after 15 min, 30 min, 1 h, 2 h and 6 h (blood samples from 6 mice per timepoint) using Aprotinine-containing BD Vacutainer®K3EDTA tubes (BD Diagnostics). The blood samples were centrifuged at 3500 RPM for 15 min at 4° C. and the plasma was collected in new tubes and freezed down at −20° C.
ELISA. A 96 well NUNC IMMOBILIZER (Cat. No. 436006) plate was coated with 15 μg/mL […] (Sigma-Aldrich, Product no. A8549) diluted in 100 mM sodium carbonate buffer (pH 9.6) and incubated for 2 h at room temperature on shaker. After incubation the plate was washed with PBS-T (1× phosphate buffered saline with 0.1% TWEEN® 20 (Sigma-Aldrich)) 3×, 1 washing step overnight at room temperature on shaker. […] The plate was read at 450 nm (and 570 nm) on a Wallac VICTOR2 1420 Multilabel Counter from PerkinElmer (Hvidovre, Denmark). The measured absorbance was calibrated to a standard curve generated from standard dilutions of biot-TPD5.

purified PICK1 = target: T1, purified PICK1 (Rattus norvegicus, UniProt Q9EP80); test: Fluorescence polarization competition, substituted peptide libraries; type: binding; details: relative to HWLKV; tracer 5FAM-HWLKV 20 nM
T1 construct: Full length rat PICK1 (pET41) was prepared as described earlier; inferred from pET41 vector and Glutathione-Sepharose capture) (N, cleaved yes); made in house; host or cells: E. coli BL21-DE3-pLysS
T1 sequence (Q9EP80 whole entry): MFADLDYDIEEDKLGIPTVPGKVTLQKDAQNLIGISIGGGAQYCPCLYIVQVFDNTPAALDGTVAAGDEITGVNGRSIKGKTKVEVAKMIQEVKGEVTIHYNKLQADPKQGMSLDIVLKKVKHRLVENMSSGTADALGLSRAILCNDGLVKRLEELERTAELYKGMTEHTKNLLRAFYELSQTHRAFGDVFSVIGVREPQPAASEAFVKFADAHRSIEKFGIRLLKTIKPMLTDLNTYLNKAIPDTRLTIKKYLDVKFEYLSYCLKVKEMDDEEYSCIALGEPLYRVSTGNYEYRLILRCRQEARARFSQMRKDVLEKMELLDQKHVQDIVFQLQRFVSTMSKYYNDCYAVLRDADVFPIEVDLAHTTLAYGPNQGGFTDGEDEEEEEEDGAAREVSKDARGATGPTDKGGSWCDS
Protocol: Full length rat PICK1 (pET41) was prepared as described earlier (Madsen et al., 2005). In brief, PICK1 was expressed in BL21-DE3-pLysS cells and grown at 37° C., induced at OD600=0.6 with 1 mM Isopropyl β-D-1-thiogalactopyranoside (IPTG) and grown 16 hrs at 20° C. Cultures were harvested and re-suspended in 50 mM trisaminomethane (Tris), 125 mM NaCl, 2 mM Dithiothreitol (DTT, Sigma), 1% Triton X-100 (Sigma), 20 μg/mL DNAse 1 and ½ a tablet cOmplete protease inhibitor cocktail (Roche) pr. 1 L culture. The re-suspended pellets were frozen at −80° C. for later purification. The lysate was cleared by centrifugation (36,000×g for 30 min at 4° C.), and the supernatant was incubated with Glutathione-Sepharose 4B beads (GE Healthcare) for 2 hrs at 4° C. under gentle rotation and then centrifuged at 4,000×g for 5 min. The supernatant was removed and the beads were washed twice in 35 mL 50 mM Tris, 125 mM NaCl, 2 mM DTT and 0.01% Triton-X100. The beads were transferred to PD-10 Bio-Spine Chromatography columns (Bio-Rad) and washed with an additional 3 column volumes. Each column was sealed and 0.075 U/μL, Novagen® was added for cleavage 0/N at 4° C. under gentle rotation. PICK1 was eluted on ice and absorption at 280 nm was measured on TECAN plate reader or on a NanoDrop3000. The protein concentration was determined using lambert beers law (A=εcl), εA280PICK1=32320 (cm*mol/L)^−1.
The plate was incubated 20 min on ice in a black half-area Corning Black non-binding surface 96-well plate and the fluorescence polarization was measured directly on a Omega POLARstar plate reader using excitation filter at 488-nm and long pass emission filter at 535-nm.

Compound | fold affinity change, combinatorial peptide library (purified PICK1) | also measured
CC(C)C[C@H](CN)CC(=O)O [Pregabalin, reference compound] |  | maximum reversal of mechanical response threshold [1]: 84.7±10.5 % of baseline
CC(C)C[C@H](NC(=O)[C@H](Cc1c[nH]c2ccccc12)NC(=O)[C@H](Cc1c[nH]cn1)NC(=O)CCOCCOCCN(CCOCCOCCC(=O)N[C@@H](Cc1c[nH]cn1)C(=O)N[C@@H](Cc1c[nH]c2ccccc12)C(=O)N[C@@H](CC(C)C)C(=O)N[C@@H](CCCCN)C(=O)N[C@H](C(=O)O)C(C)C)C(=O)[C@H](CCCNC(=N)N)NC(=O)[C@H](CCCNC(=N)N)NC(=O)[C@H](CCCNC(=N)N)NC(=O)[C@H](CCC(N)=O)NC(=O)[C@H](CCCNC(=N)N)NC(=O)[C@H](CCCNC(=N)N)NC(=O)[C@H](CCCCN)NC(=O)[C@H](CCCCN)NC(=O)[C@H](CCCNC(=N)N)NC(=O)CNC(=O)[C@H](Cc1ccc(O)cc1)NC(=O)CCCC[C@@H]1SC[C@@H]2NC(=O)N[C@@H]21)C(=O)N[C@@H](CCCCN)C(=O)N[C@H](C(=O)O)C(C)C [biotinylated Tat-NPEG4-(HWLKV)2] |  | Tmax [2]: 30 min
EIRV (DAT-C5 variant) [4-mer peptide of combinatorial library] | optimal 4-mer sequences | 
IIV [3-mer peptide of combinatorial library] | optimal 3-mer sequences | 
IRV [3-mer peptide of combinatorial library] | optimal 3-mer sequences | 
NSVRV (DAT-C5 variant) [5-mer peptide of combinatorial library] | optimal 5-mer sequences | 
TSIRV (DAT-C5 variant) [5-mer peptide of combinatorial library] | optimal 5-mer sequences | 
YIIV (DAT-C5 variant) [4-mer peptide of combinatorial library] | optimal 4-mer sequences | 
